From patent US20230331811A1, “IMMOBILIZED SELF-ASSEMBLED PROTEIN MULTIMERS” (CCOA THERAPEUTICS INC., priority 2020, published 2023) come the findings set out here.

Assay [1] has as its target Recombinant human ectodomain αIIbβ3, inactive (before activation) (human) (UniProt P08514). Put plainly: flow cytometry, 50 nM Alexa488-fibrinogen on inactive αIIbβ3 beads. A general note: Flow cytometry measures light scatter and fluorescence of single cells or particles in a stream.
Assay [2] has the same target. Put plainly: flow cytometry, 50 nM FITC-PAC 1 on inactive αIIbβ3 beads.
The target in assay [3] is Recombinant human ectodomain αIIbβ3, activated (high-affinity ligand binding conformation) (human) (UniProt P08514). Nature of the assay: flow cytometry, 50 nM FITC-PAC 1 on activated αIIbβ3 beads.
Sequence of Recombinant human ectodomain αIIbβ3, activated (high-affinity ligand binding conformation) (human) (P08514 other isoform, or with tags, fused parts or gaps limits assumed, chain 1 of 2): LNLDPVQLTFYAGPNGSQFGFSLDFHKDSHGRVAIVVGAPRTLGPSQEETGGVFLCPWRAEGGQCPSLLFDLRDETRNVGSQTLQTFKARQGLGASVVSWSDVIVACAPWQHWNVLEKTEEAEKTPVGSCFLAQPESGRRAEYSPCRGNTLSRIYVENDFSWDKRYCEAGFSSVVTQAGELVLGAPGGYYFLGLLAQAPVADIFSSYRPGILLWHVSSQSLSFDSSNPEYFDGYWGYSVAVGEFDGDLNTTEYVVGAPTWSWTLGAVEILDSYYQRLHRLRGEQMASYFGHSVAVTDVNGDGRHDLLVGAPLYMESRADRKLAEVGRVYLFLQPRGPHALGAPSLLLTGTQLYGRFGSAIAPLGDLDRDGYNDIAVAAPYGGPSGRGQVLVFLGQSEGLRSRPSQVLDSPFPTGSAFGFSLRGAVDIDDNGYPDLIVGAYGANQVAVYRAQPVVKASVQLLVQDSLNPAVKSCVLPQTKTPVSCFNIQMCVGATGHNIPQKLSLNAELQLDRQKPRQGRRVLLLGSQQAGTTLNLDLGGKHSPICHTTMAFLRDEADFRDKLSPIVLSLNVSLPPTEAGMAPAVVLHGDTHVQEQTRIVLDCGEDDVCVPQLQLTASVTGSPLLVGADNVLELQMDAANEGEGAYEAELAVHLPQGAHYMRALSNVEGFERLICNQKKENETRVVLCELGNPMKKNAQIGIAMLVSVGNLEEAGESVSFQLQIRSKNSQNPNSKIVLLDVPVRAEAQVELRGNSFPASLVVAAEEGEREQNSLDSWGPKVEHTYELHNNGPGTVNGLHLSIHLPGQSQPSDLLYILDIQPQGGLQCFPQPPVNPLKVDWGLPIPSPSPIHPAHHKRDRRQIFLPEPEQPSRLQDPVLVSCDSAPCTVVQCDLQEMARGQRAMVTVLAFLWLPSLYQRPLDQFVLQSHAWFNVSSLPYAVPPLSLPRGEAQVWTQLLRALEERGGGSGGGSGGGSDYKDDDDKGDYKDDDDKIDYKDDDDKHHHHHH
Sequence of Recombinant human ectodomain αIIbβ3, activated (high-affinity ligand binding conformation) (human) (chain, as listed by the source limits assumed, chain 2 of 2): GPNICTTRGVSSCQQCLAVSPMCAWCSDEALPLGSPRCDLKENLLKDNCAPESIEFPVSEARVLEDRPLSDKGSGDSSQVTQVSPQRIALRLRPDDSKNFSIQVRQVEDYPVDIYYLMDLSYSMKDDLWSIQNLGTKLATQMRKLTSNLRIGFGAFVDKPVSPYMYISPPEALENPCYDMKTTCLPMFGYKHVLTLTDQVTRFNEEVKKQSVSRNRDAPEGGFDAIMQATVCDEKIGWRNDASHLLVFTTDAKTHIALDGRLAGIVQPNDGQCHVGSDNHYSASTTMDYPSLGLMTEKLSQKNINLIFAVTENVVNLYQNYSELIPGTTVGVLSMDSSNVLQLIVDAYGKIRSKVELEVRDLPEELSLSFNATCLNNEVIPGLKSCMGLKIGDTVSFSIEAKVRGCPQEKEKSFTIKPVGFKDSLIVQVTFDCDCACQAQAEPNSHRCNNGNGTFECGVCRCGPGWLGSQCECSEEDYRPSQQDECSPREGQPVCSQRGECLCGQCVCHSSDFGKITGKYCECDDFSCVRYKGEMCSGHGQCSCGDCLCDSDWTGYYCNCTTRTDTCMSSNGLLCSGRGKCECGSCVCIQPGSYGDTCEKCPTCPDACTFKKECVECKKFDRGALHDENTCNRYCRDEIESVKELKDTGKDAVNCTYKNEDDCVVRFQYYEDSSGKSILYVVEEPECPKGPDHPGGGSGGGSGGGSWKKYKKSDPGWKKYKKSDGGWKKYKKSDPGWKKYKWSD

Sequence of Recombinant human ectodomain αIIbβ3, inactive (before activation) (human) (P08514 other isoform, or with tags, fused parts or gaps limits assumed, chain 1 of 2): as the sequence (P08514 other isoform, or with tags, fused parts or gaps limits assumed, chain 1 of 2) above
Sequence of Recombinant human ectodomain αIIbβ3, inactive (before activation) (human) (chain, as listed by the source limits assumed, chain 2 of 2): as the sequence (chain, as listed by the source limits assumed, chain 2 of 2) above

In the case of “Fibrinogen (from UniProt P02671 20-644; P02675 31-491; P02679 27-437) (ligand)”, in assay [1], the Mean Fluorescence Intensity (MFI) is 52.7 MFI.

For “PAC-1 (antibody specific for the active upright conformation of αIIbβ3)”, the Mean Fluorescence Intensity (MFI) is 212 MFI in assay [2] and 942 MFI in assay [3].
